Experimental data as given in article PMC10206079, “Bioinformatics of cyanophycin metabolism genes and characterization of promiscuous isoaspartyl dipeptidases that catalyze the final step of cyanophycin degradation” (Scientific Reports, 2023).

Assays:
LmIadA = target: T1, LmIadA (Leucothrix mucor, UniProt A0AA82WPE9); experiment: coupled Asp release assay (aspartate aminotransferase / malate dehydrogenase, NADH at […] nm); type: biochemical; settings: 1 mM dipeptide, 500 nM enzyme, 100 mM HEPES pH 8.2, 20 mM KCl
T1 construct: C-terminal TEV site and 8xHis tag (cut for structural work only); expressed in E. coli BL21(DE3); homooctamer, zinc enzyme

[1] = target: Leucothrix mucor DSM2157 isoaspartyl dipeptidase (LmIadA), as crystallised (Leucothrix mucor DSM2157); experiment: crystal structure; LmIadA 20 mg/ml, sitting drop, 0.56 M NaH2PO4 and 1.04 M K2HPO4, 22 °C; 1.8 Å; molecular replacement with PDB 1YBQ
[2] = target: Leucothrix mucor DSM2157 isoaspartyl dipeptidase (LmIadA), purified enzyme as examined in solution (Leucothrix mucor DSM2157); experiment: not stated; purified enzyme in solution; shown in Supplementary Fig. S2; the method is not given
[3] = target: Roseivivax halodurans DSM15395 isoaspartyl aminopeptidase (RhIaaA), heterodimer of subunits a and b (Roseivivax halodurans DSM15395); experiment: crystal structure; RhIaaA 10 mg/ml, sitting drop, 0.1 M bis-tris propane pH 8.5, 0.2 M disodium malonate, 25% PEG3350, 4 °C; 2.7 Å; molecular replacement with PDB 2ZAL
[4] = target: Roseivivax halodurans DSM15395 isoaspartyl aminopeptidase (RhIaaA), heterodimer of subunits a and b (Roseivivax halodurans DSM15395); experiment: not stated; purified enzyme in solution; shown in Supplementary Fig. S2; the method is not given

With N=C(N)NCCC[C@H](NC(=O)C[C@H](N)C(=O)O)C(=O)O [β-Asp-Arg] the “coupled Asp release assay (aspartate aminotransferase / malate dehydrogenase, NA)” value (LmIadA) was “it displayed no apparent preference towards β-Asp-Arg/Lys (Fig. 2a)”.

For NCCCC[C@H](NC(=O)C[C@H](N)C(=O)O)C(=O)O [β-Asp-Lys], the “coupled Asp release assay (aspartate aminotransferase / malate dehydrogenase, NA)” value (LmIadA) was “it displayed no apparent preference towards β-Asp-Arg/Lys (Fig. 2a)”.

In the case of “Leucothrix mucor DSM2157 isoaspartyl dipeptidase (LmIadA), as crystallised (enzyme)”, the stoichiometry N [1] is reported as 8.

With “Leucothrix mucor DSM2157 isoaspartyl dipeptidase (LmIadA), purified enzyme as examined in solution” the stoichiometry N [2] was 8.

In the case of “Roseivivax halodurans DSM15395 isoaspartyl aminopeptidase (RhIaaA), heterodimer of subunits a and b (complex)”, the stoichiometry N [3] is reported as 2 and the stoichiometry N [4] is reported as 2.
